In IntAct's records for PubMed 36931259:

B1: 14-3-3 protein sigma (Homo sapiens), P31947 (parent)
chain: MERASLIQKAKLAEQAERYEDMAAFMKGAVEKGEELSCEERNLLSVAYKNVVGGQRAAWRVLSSIEQKSNEEGSEEKGPEVREYREKVETELQGVCDTVLGLLDSHLIKEAGDAESRVFYLKMKGDYYRYLAEVATGDDKKRIIDSARSAYQEAMDISKKEMPPTNPIRLGLALNFSVFHYEIANSPEEAISLAKTTFDEAMADLHTLSEDSYKDSTLIMQLLRDNLTLWTADNAGEEGGEAPQEPQS

Variants of: B1
Settings: with MAP3K14, Q99558

Variant	effect of a mutation on the interaction
K49E;R56E;V178D	decreasing interaction strength

Variants of: B1
Settings: with limk2_human LIMK2, P53671
Chain of limk2_human LIMK2, P53671 (P53671 whole entry, looked up): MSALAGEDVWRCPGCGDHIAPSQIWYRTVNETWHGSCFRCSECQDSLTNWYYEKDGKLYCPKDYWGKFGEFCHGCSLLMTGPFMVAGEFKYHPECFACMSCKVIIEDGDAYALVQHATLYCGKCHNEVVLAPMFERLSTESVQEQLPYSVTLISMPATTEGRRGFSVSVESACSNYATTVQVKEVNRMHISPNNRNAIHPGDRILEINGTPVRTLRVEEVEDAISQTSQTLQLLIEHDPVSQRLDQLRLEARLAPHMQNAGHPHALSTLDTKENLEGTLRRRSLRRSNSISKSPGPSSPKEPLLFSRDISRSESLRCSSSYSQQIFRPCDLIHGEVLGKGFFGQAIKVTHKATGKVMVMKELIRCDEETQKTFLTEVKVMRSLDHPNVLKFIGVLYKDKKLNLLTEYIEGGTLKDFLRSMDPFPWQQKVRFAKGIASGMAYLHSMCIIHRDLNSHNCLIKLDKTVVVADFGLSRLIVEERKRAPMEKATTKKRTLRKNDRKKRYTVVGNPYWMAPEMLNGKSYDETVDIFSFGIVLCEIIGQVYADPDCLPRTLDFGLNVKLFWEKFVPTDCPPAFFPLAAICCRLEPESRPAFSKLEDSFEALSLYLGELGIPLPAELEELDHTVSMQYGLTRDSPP

Variant	effect of a mutation on the interaction
K49E;R56E;V178D	decreasing interaction strength

Variants of: B1
Settings: with m3k9_human MAP3K9, P80192

Variant	effect of a mutation on the interaction
K49E;R56E;V178D	decreasing interaction strength

Variants of: B1
Settings: with tesk2_human TESK2, Q96S53

Variant	effect of a mutation on the interaction
K49E;R56E;V178D	decreasing interaction strength

Variants of: B1
Settings: with mk04_human MAPK4, P31152
Chain of mk04_human MAPK4, P31152 (P31152 whole entry): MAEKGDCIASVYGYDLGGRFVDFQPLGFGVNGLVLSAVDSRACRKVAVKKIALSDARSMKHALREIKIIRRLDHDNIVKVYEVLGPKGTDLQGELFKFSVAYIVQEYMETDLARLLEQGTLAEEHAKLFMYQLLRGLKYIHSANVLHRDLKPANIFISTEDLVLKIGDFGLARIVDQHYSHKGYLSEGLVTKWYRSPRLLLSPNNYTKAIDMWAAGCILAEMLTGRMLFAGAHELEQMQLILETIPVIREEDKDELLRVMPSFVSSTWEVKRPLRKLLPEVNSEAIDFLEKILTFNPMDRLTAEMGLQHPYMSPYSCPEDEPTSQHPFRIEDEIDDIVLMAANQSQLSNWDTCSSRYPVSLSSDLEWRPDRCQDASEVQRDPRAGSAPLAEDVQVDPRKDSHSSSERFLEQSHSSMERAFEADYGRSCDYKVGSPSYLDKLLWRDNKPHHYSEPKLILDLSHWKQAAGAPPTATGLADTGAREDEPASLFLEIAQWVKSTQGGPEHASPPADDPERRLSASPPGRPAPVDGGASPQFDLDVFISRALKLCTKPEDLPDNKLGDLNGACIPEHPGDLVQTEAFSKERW

Variant	effect of a mutation on the interaction
K49E;R56E;V178D	decreasing interaction strength

Variants of: B1
Settings: with wnk1_human WNK1, Q9H4A3

Variant	effect of a mutation on the interaction
K49E;R56E;V178D	decreasing interaction strength

Variants of: B1
Settings: with abl1_human ABL1, P00519

Variant	effect of a mutation on the interaction
K49E;R56E;V178D	decreasing interaction strength

Variants of: B1
Settings: with mast2_human MAST2, Q6P0Q8

Variant	effect of a mutation on the interaction
K49E;R56E;V178D	decreasing interaction strength

Variants of: B1
Settings: with dyr1b_human DYRK1B

Variant	effect of a mutation on the interaction
K49E;R56E;V178D	decreasing interaction strength

Variants of: B1
Settings: with wnk4_human WNK4, Q96J92

Variant	effect of a mutation on the interaction
K49E;R56E;V178D	decreasing interaction strength

Variants of: B1
Settings: with clk3_human CLK3, P49761

Variant	effect of a mutation on the interaction
K49E;R56E;V178D	decreasing interaction strength

Variants of: B1
Settings: with cdk18_human CDK18, Q07002

Variant	effect of a mutation on the interaction
K49E;R56E;V178D	decreasing interaction strength

Variants of: B1
Settings: with lck_human LCK

Variant	effect of a mutation on the interaction
K49E;R56E;V178D	decreasing interaction strength

Variants of: B1
Settings: with ntrk3_human NTRK3, Q16288

Variant	effect of a mutation on the interaction
K49E;R56E;V178D	decreasing interaction strength

Variants of: B1
Settings: with mp2k7_human MAP2K7, O14733
Chain of mp2k7_human MAP2K7, O14733 (O14733 whole entry): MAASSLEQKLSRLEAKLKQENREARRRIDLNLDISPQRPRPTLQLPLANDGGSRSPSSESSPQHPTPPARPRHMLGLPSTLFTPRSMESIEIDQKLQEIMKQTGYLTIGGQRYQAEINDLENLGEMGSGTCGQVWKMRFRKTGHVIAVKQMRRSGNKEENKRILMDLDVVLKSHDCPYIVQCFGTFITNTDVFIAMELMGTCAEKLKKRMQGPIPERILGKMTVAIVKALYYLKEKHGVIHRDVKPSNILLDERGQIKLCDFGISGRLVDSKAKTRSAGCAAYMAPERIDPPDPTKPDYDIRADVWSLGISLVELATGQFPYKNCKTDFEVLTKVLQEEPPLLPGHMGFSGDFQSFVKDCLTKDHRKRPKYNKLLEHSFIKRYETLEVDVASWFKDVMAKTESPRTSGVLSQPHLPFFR

Variant	effect of a mutation on the interaction
K49E;R56E;V178D	decreasing interaction strength

Variants of: B1
Settings: with kkcc1_human CAMKK1, Q8N5S9

Variant	effect of a mutation on the interaction
K49E;R56E;V178D	decreasing interaction strength

Variants of: B1
Settings: with tesk1_human TESK1, Q15569

Variant	effect of a mutation on the interaction
K49E;R56E;V178D	decreasing interaction strength

Variants of: B1
Settings: with ilk_human ILK

Variant	effect of a mutation on the interaction
K49E;R56E;V178D	decreasing interaction strength

Variants of: B1
Settings: with srpk3_human SRPK3, Q9UPE1

Variant	effect of a mutation on the interaction
K49E;R56E;V178D	decreasing interaction strength

Variants of: B1
Settings: with btk_human BTK

Variant	effect of a mutation on the interaction
K49E;R56E;V178D	decreasing interaction strength

Variants of: B1
Settings: with kpce_human PRKCE

Variant	effect of a mutation on the interaction
K49E;R56E;V178D	decreasing interaction strength

Variants of: B1
Settings: with plk2_human PLK2, Q9NYY3

Variant	effect of a mutation on the interaction
K49E;R56E;V178D	decreasing interaction strength

Variants of: B1
Settings: with st32c_human STK32C

Variant	effect of a mutation on the interaction
K49E;R56E;V178D	decreasing interaction strength

Variants of: B1
Settings: with mylk2_human MYLK2, Q9H1R3

Variant	effect of a mutation on the interaction
K49E;R56E;V178D	decreasing interaction strength

Variants of: B1
Settings: with ripk2_human RIPK2, O43353

Variant	effect of a mutation on the interaction
K49E;R56E;V178D	decreasing interaction strength

Variants of: B1
Settings: with m4k4_human MAP4K4, O95819

Variant	effect of a mutation on the interaction
K49E;R56E;V178D	decreasing interaction strength

Variants of: B1
Settings: with kc1d_human CSNK1D

Variant	effect of a mutation on the interaction
K49E;R56E;V178D	decreasing interaction strength

Variants of: B1
Settings: with ks6a2_human RPS6KA2, Q15349

Variant	effect of a mutation on the interaction
K49E;R56E;V178D	decreasing interaction strength

Variants of: B1
Settings: with alpk1_human ALPK1, Q96QP1

Variant	effect of a mutation on the interaction
K49E;R56E;V178D	decreasing interaction strength

Variants of: B1
Settings: with kc1e_human CSNK1E

Variant	effect of a mutation on the interaction
K49E;R56E;V178D	decreasing interaction strength

Variants of: B1
Settings: with kpcg_human PRKCG

Variant	effect of a mutation on the interaction
K49E;R56E;V178D	decreasing interaction strength

Variants of: B1
Settings: with fak2_human PTK2B

Variant	effect of a mutation on the interaction
K49E;R56E;V178D	decreasing interaction strength

Variants of: B1
Settings: with cdk3_human CDK3, Q00526

Variant	effect of a mutation on the interaction
K49E;R56E;V178D	decreasing interaction strength

Variants of: B1
Settings: with limk1_human LIMK1, P53667
Chain of limk1_human LIMK1, P53667 (P53667 whole entry, looked up): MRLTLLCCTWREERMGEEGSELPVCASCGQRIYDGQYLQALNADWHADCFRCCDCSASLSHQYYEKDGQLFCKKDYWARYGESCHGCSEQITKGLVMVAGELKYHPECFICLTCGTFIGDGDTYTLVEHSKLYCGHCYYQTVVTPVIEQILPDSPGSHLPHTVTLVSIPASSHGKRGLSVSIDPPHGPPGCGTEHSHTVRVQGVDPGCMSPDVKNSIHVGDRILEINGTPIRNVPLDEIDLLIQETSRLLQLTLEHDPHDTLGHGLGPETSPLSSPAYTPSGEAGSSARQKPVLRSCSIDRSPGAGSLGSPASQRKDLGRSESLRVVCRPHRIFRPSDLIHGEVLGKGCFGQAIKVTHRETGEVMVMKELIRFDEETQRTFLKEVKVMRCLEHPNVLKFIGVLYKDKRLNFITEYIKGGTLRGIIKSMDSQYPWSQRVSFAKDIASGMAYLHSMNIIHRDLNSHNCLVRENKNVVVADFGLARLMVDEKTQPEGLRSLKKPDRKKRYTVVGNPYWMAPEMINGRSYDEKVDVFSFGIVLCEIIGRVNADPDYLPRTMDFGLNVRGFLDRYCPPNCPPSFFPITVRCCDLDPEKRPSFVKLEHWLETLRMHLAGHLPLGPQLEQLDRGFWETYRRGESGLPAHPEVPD

Variant	effect of a mutation on the interaction
K49E;R56E;V178D	decreasing interaction strength

Variants of: B1
Settings: with pak6_human PAK6, Q9NQU5

Variant	effect of a mutation on the interaction
K49E;R56E;V178D	decreasing interaction strength

Variants of: B1
Settings: with igf1r_human IGF1R

Variant	effect of a mutation on the interaction
K49E;R56E;V178D	decreasing interaction strength

Variants of: B1
Settings: with aapk2_human PRKAA2, P54646

Variant	effect of a mutation on the interaction
K49E;R56E;V178D	decreasing interaction strength

Variants of: B1
Settings: with pak4_human PAK4, O96013

Variant	effect of a mutation on the interaction
K49E;R56E;V178D	decreasing interaction strength

Variants of: B1
Settings: with pgfra_human PDGFRA

Variant	effect of a mutation on the interaction
K49E;R56E;V178D	decreasing interaction strength

Variants of: B1
Settings: with cdk17_human CDK17, Q00537
Chain of cdk17_human CDK17, Q00537 (Q00537 whole entry, looked up): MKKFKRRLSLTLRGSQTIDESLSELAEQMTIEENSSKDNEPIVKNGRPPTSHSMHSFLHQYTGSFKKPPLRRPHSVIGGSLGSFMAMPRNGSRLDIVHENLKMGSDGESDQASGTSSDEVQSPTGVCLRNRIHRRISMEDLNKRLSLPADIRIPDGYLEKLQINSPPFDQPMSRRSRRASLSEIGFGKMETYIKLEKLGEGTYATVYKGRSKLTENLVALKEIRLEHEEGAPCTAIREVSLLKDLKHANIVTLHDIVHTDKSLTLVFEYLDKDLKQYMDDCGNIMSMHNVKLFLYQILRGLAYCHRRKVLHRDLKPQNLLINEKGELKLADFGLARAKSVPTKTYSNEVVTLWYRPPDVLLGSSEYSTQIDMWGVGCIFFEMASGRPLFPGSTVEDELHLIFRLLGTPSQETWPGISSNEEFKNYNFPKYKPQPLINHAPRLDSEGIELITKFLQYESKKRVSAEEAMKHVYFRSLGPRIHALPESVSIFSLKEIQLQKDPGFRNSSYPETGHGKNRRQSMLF

Variant	effect of a mutation on the interaction
K49E;R56E;V178D	decreasing interaction strength

Variants of: B1
Settings: with mink1_human MINK1, Q8N4C8

Variant	effect of a mutation on the interaction
K49E;R56E;V178D	decreasing interaction strength

Variants of: B1
Settings: with kcc2d_human CAMK2D

Variant	effect of a mutation on the interaction
K49E;R56E;V178D	decreasing interaction strength

Variants of: B1
Settings: with kcc2a_human CAMK2A

Variant	effect of a mutation on the interaction
K49E;R56E;V178D	decreasing interaction strength

Variants of: B1
Settings: with dapk2_human DAPK2, Q9UIK4

Variant	effect of a mutation on the interaction
K49E;R56E;V178D	decreasing interaction strength

Variants of: B1
Settings: with m4k1_human MAP4K1, Q92918
Chain of m4k1_human MAP4K1, Q92918 (Q92918 whole entry, looked up): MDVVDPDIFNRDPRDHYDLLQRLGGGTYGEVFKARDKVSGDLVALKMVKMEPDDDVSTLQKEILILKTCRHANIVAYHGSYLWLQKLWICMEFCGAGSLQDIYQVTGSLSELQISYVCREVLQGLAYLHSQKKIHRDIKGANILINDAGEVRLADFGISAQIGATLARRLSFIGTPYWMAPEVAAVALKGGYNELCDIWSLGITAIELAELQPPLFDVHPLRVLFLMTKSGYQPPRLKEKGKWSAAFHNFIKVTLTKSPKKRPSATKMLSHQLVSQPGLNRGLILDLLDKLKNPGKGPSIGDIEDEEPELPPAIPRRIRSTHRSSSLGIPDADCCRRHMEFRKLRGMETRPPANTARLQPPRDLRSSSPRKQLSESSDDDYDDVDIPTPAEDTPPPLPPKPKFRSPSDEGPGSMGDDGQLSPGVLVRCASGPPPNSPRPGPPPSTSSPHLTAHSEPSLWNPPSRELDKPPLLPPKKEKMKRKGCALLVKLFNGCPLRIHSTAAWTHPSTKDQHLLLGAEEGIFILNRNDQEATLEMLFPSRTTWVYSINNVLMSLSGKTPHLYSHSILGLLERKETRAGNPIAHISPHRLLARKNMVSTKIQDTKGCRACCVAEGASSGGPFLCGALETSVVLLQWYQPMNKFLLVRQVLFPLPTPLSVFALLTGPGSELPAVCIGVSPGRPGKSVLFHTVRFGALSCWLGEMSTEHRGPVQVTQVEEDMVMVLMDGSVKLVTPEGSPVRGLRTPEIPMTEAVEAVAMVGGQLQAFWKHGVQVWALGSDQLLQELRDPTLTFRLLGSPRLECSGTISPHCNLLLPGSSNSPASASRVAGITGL

Variant	effect of a mutation on the interaction
K49E;R56E;V178D	decreasing interaction strength

Variants of: B1
Settings: with erbb4_human ERBB4, Q15303
Chain of erbb4_human ERBB4, Q15303 (Q15303 whole entry): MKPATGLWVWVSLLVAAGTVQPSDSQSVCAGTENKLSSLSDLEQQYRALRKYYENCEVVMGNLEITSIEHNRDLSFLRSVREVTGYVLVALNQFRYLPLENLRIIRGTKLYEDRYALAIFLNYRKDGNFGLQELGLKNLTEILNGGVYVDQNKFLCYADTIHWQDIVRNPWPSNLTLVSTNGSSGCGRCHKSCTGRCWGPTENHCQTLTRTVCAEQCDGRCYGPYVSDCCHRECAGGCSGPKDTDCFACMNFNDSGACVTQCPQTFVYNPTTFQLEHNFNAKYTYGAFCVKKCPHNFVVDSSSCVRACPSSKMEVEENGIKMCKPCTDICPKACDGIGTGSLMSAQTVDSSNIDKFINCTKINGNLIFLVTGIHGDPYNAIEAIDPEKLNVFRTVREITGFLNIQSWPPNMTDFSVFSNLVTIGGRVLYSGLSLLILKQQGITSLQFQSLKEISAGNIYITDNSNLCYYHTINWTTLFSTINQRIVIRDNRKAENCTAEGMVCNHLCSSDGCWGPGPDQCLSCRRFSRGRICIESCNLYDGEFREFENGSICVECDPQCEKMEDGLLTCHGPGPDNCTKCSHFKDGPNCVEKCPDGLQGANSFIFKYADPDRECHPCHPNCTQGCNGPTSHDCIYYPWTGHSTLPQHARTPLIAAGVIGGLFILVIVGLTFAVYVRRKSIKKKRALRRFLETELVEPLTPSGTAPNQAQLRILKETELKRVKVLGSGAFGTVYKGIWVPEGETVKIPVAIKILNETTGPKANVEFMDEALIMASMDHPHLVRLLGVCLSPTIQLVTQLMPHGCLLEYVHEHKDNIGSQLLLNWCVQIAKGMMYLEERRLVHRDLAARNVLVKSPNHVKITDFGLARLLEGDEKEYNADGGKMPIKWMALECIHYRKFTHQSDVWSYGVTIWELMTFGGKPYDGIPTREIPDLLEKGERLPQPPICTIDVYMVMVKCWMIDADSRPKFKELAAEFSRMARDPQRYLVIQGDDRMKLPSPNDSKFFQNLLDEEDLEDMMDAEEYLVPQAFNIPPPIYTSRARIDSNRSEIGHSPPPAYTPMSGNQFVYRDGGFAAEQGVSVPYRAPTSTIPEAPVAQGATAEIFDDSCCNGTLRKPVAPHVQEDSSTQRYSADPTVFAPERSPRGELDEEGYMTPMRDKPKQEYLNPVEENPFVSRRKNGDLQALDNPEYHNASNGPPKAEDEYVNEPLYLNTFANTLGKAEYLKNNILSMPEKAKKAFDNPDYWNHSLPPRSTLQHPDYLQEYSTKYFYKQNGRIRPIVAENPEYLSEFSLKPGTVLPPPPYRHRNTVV

Variant	effect of a mutation on the interaction
K49E;R56E;V178D	decreasing interaction strength

Variants of: B1
Settings: with bub1b_human BUB1B

Variant	effect of a mutation on the interaction
K49E;R56E;V178D	decreasing interaction strength
